This is an account of results in US12410262B2, “Peptide conjugates of cytotoxins as therapeutics” (Cybrexa 2, Inc., priority 2019, dated 2025).

Molecules are shown by their SMILES.

One series in a line: Plasma stability studies. Format: in vitro ADME. As to conditions: rat plasma, 100 μM conjugate, 37° C. Summed up: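 Conjugate at 100 μM final in rat plasma (diluted from DMSO stock via 100 mM Tris, pH 7.5), incubated at 37° C for up to 24 h, sampled at 0, 4 and 24 h. Samples acid/acetonitrile-extracted and analysed by HPLC; remaining conjugate expressed as peak area relative to time 0 ×100.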

Series [1] in a line: Gastric toxicity study in a mouse model. The format is in vivo, athymic nude Foxn^nu mice. Particulars: 5.2 μmoles/kg (20 mg/kg) IP once daily for 4 days. On the procedure: Six-week-old female athymic nude Foxn^nu mice were obtained from Taconic Labs (Cat #NCRNU-F) and were housed 5 per cage on Alpha-Dri bedding in a disposable caging system (Innovive). Human HCT116 cells derived from colorectal carcinoma were diluted 1:1 in Phenol Red-free Matrigel and subcutaneously implanted into the left flank of each mouse at a density of 2.5×10^6 cells in 100 μL. When xenografts reached a minimal volume of 300 mm^3, mice were administered intraperitoneal doses of vehicle, or 5.2 μmoles/kg of either unconjugated exatecan (equivalent to 2.3 mg/kg exatecan) or Compound 11 (equivalent to 20 mg/kg Compound 11). Compounds were administered once daily for 4 days. At 6 hours after administration of the last dose, mice were euthanized by cervical dislocation and gross necropsy was conducted. Photographs were taken of the stomachs both in situ and ex vivo.

Series [2] can be described thus: Plasma pharmacokinetics of Compound 11 in a rat model. Format: in vivo, Sprague Dawley rats. Particulars: single IV dose 5 mg/kg. On the procedure:
Male Sprague Dawley rats underwent jugular vein cannulation and insertion of a vascular access button (VAB, Instech Labs Cat #VABR1B/22) at Envigo Labs prior to shipment. Magnetic, aluminum caps (Instech Labs Cat #Cat #VABRC) were used to protect the access port for the jugular catheters allowing the animals to be housed 2 per cage on corn cob bedding for 4-5 days prior to the study. Rats were administered a single intravenous dose of 5 mg/kg Compound 11 prepared in a vehicle of 5% mannitol in citrate buffer. At 1, 2, 4, 8, 24 and 30 hours following compound administration, blood (250 μL) was collected into K2EDTA filled microtainers from fed rats. Plasma was isolated by centrifugation and 100 μL aliquots were transferred to 96-well polypropylene plates on dry ice. Samples were stored at −80° C. until processed for quantification of total peptide by ELISA and released exatecan by LC-MS/MS.
96-Well plates were coated with 100 μL/well of 0.1 μM BSA-labelled peptide prepared in 0.2 M Carbonate-Bicarbonate Buffer, pH 9.4 and incubated overnight at 4° C. […] Luminescence was read from the plate on a BioTek Cytation 5 plate reader.
For quantification of exatecan, a 20 μL plasma sample was added to a polypropylene autosampler vial. […] The samples were centrifuged for 5-10 minutes at 3700 rpm then analyzed via liquid chromatography tandem mass spectrometry (LC-MS/MS).

Turning to `CC[C@@]1(O)C(=O)OCc2c1cc1n(c2=O)Cc2c-1nc1cc(F)c(C)c3c1c2[C@@H](NC(=O)O[C@H]1CCCC[C@@H]1SSC[C@H](NC(=O)[C@H](Cc1c[nH]c2ccccc12)NC(=O)[C@H](CC(C)C)NC(=O)[C@H](CC(C)C)NC(=O)[C@H](CC(=O)O)NC(=O)[C@H](CC(C)C)NC(=O)[C@H](CC(C)C)NC(=O)[C@H](CC(C)C)NC(=O)[C@@H](NC(=O)[C@H](CC(=O)O)NC(=O)[C@@H](NC(=O)[C@@H]1CCCN1C(=O)[C@H](Cc1ccccc1)NC(=O)[C@H](CC(C)C)NC(=O)[C@H](CC(C)C)NC(=O)[C@H](CC(=O)O)NC(=O)[C@H](CC(C)C)NC(=O)[C@H](Cc1ccc(O)cc1)NC(=O)[C@H](C)NC(=O)[C@H](CCCNC(=N)N)NC(=O)[C@H](Cc1c[nH]c2ccccc12)NC(=O)[C@@H]1CCCN1C(=O)[C@H](CC(N)=O)NC(=O)[C@H](CCC(N)=O)NC(=O)[C@H](CC(=O)O)NC(=O)[C@H](CC(=O)O)NC(=O)[C@H](C)N)[C@@H](C)O)[C@@H](C)O)C(=O)NCC(=O)O)CC3` [Compound 11], in “Plasma stability studies” (4 hrs), the fraction remaining at 4 h, 100 µM is 108%. Moreover, in the series “Plasma stability studies” (24 hrs), the fraction remaining at 24 h, 100 µM is 107%. Besides, the “gastric toxicity (stomachs in situ and ex vivo)” value in series [1] is given as “did not display the gastric toxicity”. The stable in plasma result in series [2] is “at least 30 h”. In addition, the “exatecan warhead released in circulation” value in series [2] (after 30 h) was “less than 0.002%”.
